Experimental data: publication PMC3875342

Molecular target: DP10.7 TCR (Vγ4Vδ1), soluble recombinant γδ TCR (human)
Assay: SPR

Question: Which KD without sulfatide (CD1d loaded with 24:1 βGalCer) does the source give for “soluble, recombinant human CD1d (heterodimer with β2-microglobulin) (from UniProt P15813 20-301; P61769 21-119) (complex)” here?
Answer: > 100 µM
